{
  "source": "the nanobody polyreactivity screen of Harvey et al. (2022)",
  "data": [
    {"assay": "yeast display, Sf9 membrane polyspecificity reagent, FACS + sequencing; frameworks hold sequencing errors", "procedure,_shortened": "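Genes from sorted yeast were amplified by colony PCR, read by MiSeq 2 × 250 sequencing and filtered on CDR length. These cells carried a synthetic nanobody library in Saccharomyces cerevisiae BJ5465 and were sorted by FACS into low and high (top ~1%) gates on anti-HA and streptavidin fluorescence. Polyreactivity is labelled according to the gate of origin.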", "values": [
      {"sequence": "QVQLVESGGGLVQAGGSLRLSCAASGSTFWYNDMGWYRQAPGKETELVASISWSGGDTYYADSVKGRFTISRDNAKNTVYLQMNSLKPEDTAVYYCAKGNNWISRLMDYWGQGTQVTVSS", "polyreactivity (PSR sort gate)": "low polyreactivity"},
      {"sequence": "QVQLVESGGGLVQAGGSLRLSCAASGSTFHRYAMGWYRQAAGKERELVATITSRGGITYYADSVKGRFTISRDNAKNTVYLQMNSLKPEDTAVYYCNTEDGTTPQYGYDQGMYYWGQGTQVTVSS", "polyreactivity (PSR sort gate)": "low polyreactivity"},
      {"sequence": "QVQHVESGGGLVQAGGSLRLSCAASGSIFGVNVMGWYRQAPGKERELVAAISSGGGSTYYAESVKGRFTISRDNAKNTVYLQMNSLKPEDTAVYYCAARGQKYGSTYRMDYWGQGTQVTVSS", "polyreactivity (PSR sort gate)": "low polyreactivity"},
      {"sequence": "QVQLVESGGGLVQAGGSLRLSCAASGLTFPYYAMGWYRQAPGKERELVAGISDSGDSTYYADSVKGRFTISRDNAKNTVYLQMNSLKPEDTAVYYCNAYFRYSYDYWGQGTQVTVSS", "polyreactivity (PSR sort gate)": "high polyreactivity"},
      {"sequence": "QVQLVESGGGLVQAGGSLRLSCAASGIILYVYGMGWYRQAPGKERELVATITWSDGGTYYADSVKGRFTISRDNAKNTVYLQMNSLKPEDTAVYYCNVVVVNGWVTTPGYDYWGQGTQVTVSS", "polyreactivity (PSR sort gate)": "low polyreactivity"},
      {"sequence": "QVQLVESGGGLVQAGGSLRLSCAASGRTFYRYSMGWYRQAPGKERELVAGISTRGGSTYYADSVKGRFTISRDNAKNTVYLQMNSLKPEDTAVYYCAAAPLAFRYDYWGQGTHVTVSS", "polyreactivity (PSR sort gate)": "high polyreactivity"},
      {"sequence": "QVQLVESGGGLVQAGGSLRLSCAASGSTFFVNAMGWYRQAPGKERELVASITVSSGRTYYADSVKGRFTISRDNAKNTVYLQMNSLKPEDTAVYYCAARHLYWRREGYYWGQGYQVTVSS", "polyreactivity (PSR sort gate)": "high polyreactivity"},
      {"sequence": "QVQLVESGGGLVQAGGSLRLSCAASGRIFNNYAMGWYRQAPGKERELVASITSGGSTNYADSVKGRFTISRDNAKNTVYLHMNSLKPEDTAVYYCNAPRGNRYHTGGYWGQGTQVTVSS", "polyreactivity (PSR sort gate)": "low polyreactivity"},
      {"sequence": "QVQLVESGGGLVQAGGSLRLSCAASGLTLGSYAMGWYRQAPGKERELVAAISRRSGRTYYADSVKGRFTISRDNAKNTVYLQMNSLKPEDTAVYYCNRGYTAQVYTEFDYWGQGTQVTVSS", "polyreactivity (PSR sort gate)": "low polyreactivity"},
      {"sequence": "QVQLVESGGGLVQAGGSLRLSCAASGRIFYGYAMGWYRQAPGKERELVASISRRGSSTYYADSVKGRFTISRDNAMNTVYLQMNSLKPEDTAVYYCAAGYYPFNYWGQGTQVTVSS", "polyreactivity (PSR sort gate)": "high polyreactivity"},
      {"sequence": "QVQLVESCGGLVQAGGSLRLSCAASGRIFRDYAMGWYRQAPGKERELVATITRSGGRTYYADSVKGRFTISRDNAKNTVFLQMNSLKPEDTSVYYCAATYWTYPYHYQYKYDYWGQGTQVTVSS", "polyreactivity (PSR sort gate)": "high polyreactivity"},
      {"sequence": "QVQLVESGGGLVQAGGSLRLSCAASGSIFWAYTMGWYRQAPGKERELVAAISASGGSTYYADSVKGRFTISRDNAKNTVYLQMNSLKPEDTAVYYCAAVYDLGYYGPIWAIVLDDYWGQGTQVTVSS", "polyreactivity (PSR sort gate)": "low polyreactivity"},
      {"sequence": "QVQLVESGGGLVQAGGSLRLSCAASGSTFTDYDMGWYRQAPGTERELVAAITSGCSTNYADSVKGRFTISRDNAKNTVYLQMNSLKPEDTAVYYCAAADADRKYDYWGQGTQVTVTS", "polyreactivity (PSR sort gate)": "low polyreactivity"},
      {"sequence": "QVQLVESGGGLVQAGGSLRLSCAASGYTFGKYVMGWYRQAPGKERELVAAISKSGSGTYYADSVKGRFTISRDNAKNTVYFQMNSLKPEDTAVYYFAARGYGFPELDYWGQGTQVTVSS", "polyreactivity (PSR sort gate)": "high polyreactivity"},
      {"sequence": "QVQLVESGGGLVQAGGSLRLSCAASGRIFRVYAMGWYRQAPGKERELVAVISARGGNTYYADSVKGRFTISRDNAKNTVYLQMNSMKPEDTAVYYCAARGRMDYWGQGTQVTVSS", "polyreactivity (PSR sort gate)": "high polyreactivity"},
      {"sequence": "QVQLVESGGGLVQAGGSLSLSCAASGSTFYYNAMGWYRQAPGKEREFVAAINWRGGSTYYADSVKGRFTISRDNAKNTVYLQMNSLKPEDTAVYYCSAEEASTYYYVRSGYDYHFWEMYSWGQGTQVTVSS", "polyreactivity (PSR sort gate)": "low polyreactivity"},
      {"sequence": "QVQLVESGGGLVQAGGSLRLSCAASGIIFINYVKGWYRQAPGKESELVAAITGSGSSTYYADSVKGRFTISRDNAKNTVYLQMNSLKPEDTAVYYCAADNPRVRFLYYYWGQGTQVTVSS", "polyreactivity (PSR sort gate)": "high polyreactivity"},
      {"sequence": "QVQLLESGGGLVQAGGSLRLSCAATRRIFEYNGMGWYRQAPGKDSELVAAIEWNGSPTYADSVKGRFTIARDNAKNTVYLLMNSLKPEDTSVYYCAKAYPGKAPKYDYWGQGTQVTVSS", "polyreactivity (PSR sort gate)": "low polyreactivity"},
      {"sequence": "QVQLVESGGGLVQAGGSLRLSCAASGFIFYDYAMGWYRQAPGKERELVAAIRSSDGGTYYADSVKGRFTISRDNAKNTVYLQMNSLKPEDTAVYYCAAEIRWGWHPYYDYDEYWGQGTQVTVSS", "polyreactivity (PSR sort gate)": "low polyreactivity"},
      {"sequence": "QVQLVESGGGLVQAGGSLRLSCAASGSTFSTNAMGWYRQAPGKERELVAAISRSGGSTYYADSVKGRFTISRDNAKNTVYLQMNSLKPEDTAVYYCARYSYRGTNVRYDYWGQGTQVTVSS", "polyreactivity (PSR sort gate)": "high polyreactivity"},
      {"sequence": "QVQLVESGRGLVQAGGSLRLSCAASGIIFEYYTMGWSRPAPGKERELVASITYDGDSTYYADSVKGRFTISRDNAKNTVYLQMNSLKPEDTAVYYCAAEYYYVYSSFGHFYWGQGTQVTVSS", "polyreactivity (PSR sort gate)": "low polyreactivity"},
      {"sequence": "QVQLVESCGGLVQPGGSLRLSCAASGSILKSYAMGWYRKAPGKERELVAAITYRDGSTYYADSVKGRFTISRDNSKNTVYLQMNSLKPEDTAVYYCAAEPSWWNVFYPGYNYWGQGTQVTVSS", "polyreactivity (PSR sort gate)": "high polyreactivity"},
      {"sequence": "QVQLVESGGGLVQAGGSLRLSCDASGIIFVKYAMGWYRQAPGKERELVAAITSGGSTYYADSVKGRFTISRDNAKNTVYLQMNSLKPEDTAVYYCNADTWFLYFFTINGYWGQGTQVTVSS", "polyreactivity (PSR sort gate)": "high polyreactivity"},
      {"sequence": "QVQLVESGGGLVQAGGSLRLSCAASGRTFYVYTMGWYRQAPGKERELVAAITTGGSTNYADSVKGRFTISRDNAKNTVYLQMNSLKPEDTAVYYCAARVSTVFKRYYYWGQGTQVTVSS", "polyreactivity (PSR sort gate)": "high polyreactivity"},
      {"sequence": "QVQLVESGGGLVQAGGSLRLSCAASGIIFNSYAMGWYRQAPGKERELVAAISRSGTSTYYADSVKGRFTISRDNAKNTVYLQMNSLKPEDTAVYYCNVARGYYSYSSRIDYYWGQGTQVTVSS", "polyreactivity (PSR sort gate)": "high polyreactivity"},
      {"sequence": "QVQLVESGGGLVPAGGSLRLSCDASGRTFWFYAMGWYRQAQGKERELVASITSGGGTNYADSVKGRFTISRDNAKNTVYLQMNSLKPEDTAVYYCAADRAYGVLGNEGGYWGQGTQVTVSS", "polyreactivity (PSR sort gate)": "high polyreactivity"},
      {"sequence": "QVQLVESGGGLVQAGGSLRLSCAASGFTFSSNAMGWYRQAPGKERELVAAIRSDGVRTYYADSVKGRFTISRDNAKNTVYLQMNSLKPEDTAVYYCNSVSDVRIGAGDYWGQGTQVTVSS", "polyreactivity (PSR sort gate)": "high polyreactivity"},
      {"sequence": "QVQLVESGGGLVQAGGSLRLSCSASGFIFWYYAMGWYRQAPGKERELVAAISSGGSTNYADSVKGRFAISRDNAKNTVYLQLNSLIPVDTAVYYCATSSIWGSARVRWVTYYYWGQGTQVTVSS", "polyreactivity (PSR sort gate)": "low polyreactivity"},
      {"sequence": "QVQLVESGGGLVQAGGSLRLSCAASGRIFVYNVMGWYRQAPGKERELVAAISWGTGSTYADSVKGRFTISRDNAKNTVYLQMNSLKPEDTAVYYCAADSFIPPYDHWGQGTQVTVSS", "polyreactivity (PSR sort gate)": "low polyreactivity"},
      {"sequence": "QVQLVESGGGLVQAGGSLRLSCAASGSTIFGYALGSYRQAPGKERELVAASSSGGSTYYADSVKGRFTISRDNAKNTVYLQMNSLKPEDTAVYYCAATRRLKRYWAQGTQVTVSS", "polyreactivity (PSR sort gate)": "high polyreactivity"},
      {"sequence": "QVQLVESGGGLVQAGGSLRLSCAASGYTFYANAMGWYRQAPGKEREFVASNTWSGGSTYYADSVKGRFTISRDTAKITVYLQMNSLKPEDTAVYYWAAESWFNYDYWGQGTQVTVSS", "polyreactivity (PSR sort gate)": "low polyreactivity"},
      {"sequence": "QVQLVESGGGLVQAGGSLRLSCASSGRTFARNVMGWYRQAPGKERELVAAIRGSGGSTYYADSLKGRFTISRDNGKNTVYLQMNSLKTEDTAVYYCAADSSYTKRHSPTKLHFDYWGQGTQVTVSS", "polyreactivity (PSR sort gate)": "high polyreactivity"}
    ]}
  ]
}
